What was measured:
Test in all cases: cell-based or functional assay
[1] = target: HIV-1 Env of pseudovirus WEAU_d15_410_787 (HIV-1)
[2] = target: HIV-1 Env of pseudovirus HIV-0013095-2.11 (HIV-1)
[3] = target: HIV-1 Env of pseudovirus Ce704809221_1B3 (HIV-1)
[4] = target: HIV-1 Env of pseudovirus C4118.c09 (HIV-1)
[5] = target: HIV-1 Env of pseudovirus MS208.A1 (HIV-1)
[6] = target: HIV-1 Env of pseudovirus Du156.12 (HIV-1)
[7] = target: HIV-1 Env of pseudovirus 246F C1G (HIV-1)
[8] = target: HIV-1 Env of pseudovirus 231966.c02 (HIV-1)
[9] = target: HIV-1 Env of pseudovirus BJOX009000.02.4 (HIV-1)
[10] = target: HIV-1 Env of pseudovirus P0402_c2_11 (HIV-1)
[11] = target: HIV-1 Env of pseudovirus X2088_c9 (HIV-1)
[12] = target: HIV-1 Env of pseudovirus CNE52 (HIV-1)
[13] = target: HIV-1 Env of pseudovirus Q461.e2 (HIV-1)
[14] = target: HIV-1 Env of pseudovirus 191955_A11 (HIV-1)
[15] = target: HIV-1 Env of pseudovirus Q259.d2.17 (HIV-1)
[16] = target: HIV-1 Env of pseudovirus 6535.3 (HIV-1)
[17] = target: HIV-1 Env of pseudovirus ZM135M.PL10a (HIV-1)
[18] = target: HIV-1 Env of pseudovirus T278-50 (HIV-1)
[19] = target: HIV-1 Env of pseudovirus 235-47 (HIV-1)
[20] = target: HIV-1 Env of pseudovirus Ce1172_H1 (HIV-1)
[21] = target: HIV-1 Env of pseudovirus ZM247v1(Rev-) (HIV-1)
[22] = target: HIV-1 Env of pseudovirus CAP45.2.00.G3 (HIV-1)
[23] = target: HIV-1 Env of pseudovirus AC10.0.29 (HIV-1)
[24] = target: HIV-1 Env of pseudovirus 928-28 (HIV-1)
[25] = target: HIV-1 Env of pseudovirus CAAN5342.A2 (HIV-1)
[26] = target: HIV-1 Env of pseudovirus CNE20 (HIV-1)
[27] = target: HIV-1 Env of pseudovirus T250-4 (HIV-1)
[28] = target: HIV-1 Env of pseudovirus Ce703010054_2A2 (HIV-1)
[29] = target: HIV-1 Env of pseudovirus RHPA4259.7 (HIV-1)
[30] = target: HIV-1 Env of pseudovirus 263-8 (HIV-1)
[31] = target: HIV-1 Env of pseudovirus 0815.v3.c3 (HIV-1)
[32] = target: HIV-1 Env of pseudovirus CNE53 (HIV-1)
[33] = target: HIV-1 Env of pseudovirus X1254_c3 (HIV-1)
[34] = target: HIV-1 Env of pseudovirus 6240_08_TA5_4622 (HIV-1)
[35] = target: HIV-1 Env of pseudovirus ZM233M.PB6 (HIV-1)
[36] = target: HIV-1 Env of pseudovirus 1054_07_TC4_1499 (HIV-1)
[37] = target: HIV-1 Env of pseudovirus PVO.4 (HIV-1)

PGDM1400 (antibody)
IC50 [1]: 0.103 µg/mL
IC80 [1]: 1.37 µg/mL
IC50 [2]: 0.003 µg/mL
IC80 [2]: 0.012 µg/mL
IC50 [3]: 0.28 µg/mL
IC80 [3]: 1.1 µg/mL
IC50, titer in TZM.bl cells [4]: 0.002 µg/mL
IC80, titer in TZM.bl cells [4]: 0.005 µg/mL
IC50 [5]: < 0.001 µg/mL
IC80 [5]: 0.139 µg/mL
IC50 [6]: 0.002 µg/mL
IC80 [6]: 0.008 µg/mL
IC50 [7]: > 50 µg/mL
IC80 [7]: > 50 µg/mL
IC50, titer in TZM.bl cells [8]: 0.001 µg/mL
IC80, titer in TZM.bl cells [8]: 0.004 µg/mL
IC50, titer in TZM.bl cells [9]: 0.443 µg/mL
IC80, titer in TZM.bl cells [9]: 1.29 µg/mL
IC50, titer in TZM.bl cells [10]: 0.01 µg/mL
IC80, titer in TZM.bl cells [10]: 0.033 µg/mL
IC50, titer in TZM.bl cells [11]: > 50 µg/mL
IC80, titer in TZM.bl cells [11]: > 50 µg/mL
IC50 [12]: 1.15 µg/mL
IC80 [12]: 9.97 µg/mL
IC50 [13]: 0.089 µg/mL
IC80 [13]: 0.572 µg/mL
IC50 [14]: 0.001 µg/mL
IC80 [14]: 0.021 µg/mL
IC50 [15]: 0.166 µg/mL
IC80 [15]: > 50 µg/mL
IC50 [16]: > 50 µg/mL
IC80 [16]: > 50 µg/mL
IC50 [17]: > 50 µg/mL
IC80 [17]: > 50 µg/mL
IC50, titer in TZM.bl cells [18]: 0.574 µg/mL
IC80, titer in TZM.bl cells [18]: 4.94 µg/mL
IC50, titer in TZM.bl cells [19]: 0.005 µg/mL
IC80, titer in TZM.bl cells [19]: 0.032 µg/mL
IC50 [20]: 0.021 µg/mL
IC80 [20]: 0.06 µg/mL
IC50 [21]: 0.019 µg/mL
IC80 [21]: 0.051 µg/mL
IC50 [22]: < 0.001 µg/mL
IC80 [22]: 0.002 µg/mL
IC50 [23]: 0.105 µg/mL
IC80 [23]: 0.869 µg/mL
IC50 [24]: 0.22 µg/mL
IC80 [24]: 1.25 µg/mL
IC50 [25]: > 50 µg/mL
IC80 [25]: > 50 µg/mL
IC50 [26]: 0.004 µg/mL
IC80 [26]: 0.014 µg/mL
IC50 [27]: < 0.001 µg/mL
IC80 [27]: < 0.001 µg/mL
IC50 [28]: 0.015 µg/mL
IC80 [28]: 0.26 µg/mL
IC50 [29]: 0.447 µg/mL
IC80 [29]: 2.19 µg/mL
IC50 [30]: 0.02 µg/mL
IC80 [30]: 0.103 µg/mL
IC50, titer in TZM.bl cells [31]: > 50 µg/mL
IC80, titer in TZM.bl cells [31]: > 50 µg/mL
IC50 [32]: 0.077 µg/mL
IC80 [32]: 0.246 µg/mL
IC50, titer in TZM.bl cells [33]: > 50 µg/mL
IC80, titer in TZM.bl cells [33]: > 50 µg/mL
IC50 [34]: > 50 µg/mL
IC80 [34]: > 50 µg/mL
IC50 [35]: < 0.001 µg/mL
IC80 [35]: 0.001 µg/mL
IC50 [36]: > 50 µg/mL
IC80 [36]: > 50 µg/mL
IC50 [37]: 0.484 µg/mL
IC80 [37]: 6.49 µg/mL

PGT121 (antibody)
IC50 [1]: 0.026 µg/mL
IC80 [1]: 0.077 µg/mL
IC50 [2]: > 50 µg/mL
IC80 [2]: > 50 µg/mL
IC50 [3]: 0.025 µg/mL
IC80 [3]: 0.126 µg/mL
IC50 [4]: > 50 µg/mL
IC80 [4]: > 50 µg/mL
IC50 [5]: > 50 µg/mL
IC80 [5]: > 50 µg/mL
IC50 [6]: 0.004 µg/mL
IC80 [6]: 0.017 µg/mL
IC50 [7]: 0.041 µg/mL
IC80 [7]: 0.14 µg/mL
IC50 [8]: > 50 µg/mL
IC80 [8]: > 50 µg/mL
IC50 [9]: 2.86 µg/mL
IC80 [9]: 31.7 µg/mL
IC50 [10]: 0.005 µg/mL
IC50 [11]: 0.003 µg/mL
IC80 [11]: 0.013 µg/mL
IC50 [12]: 2.04 µg/mL
IC80 [12]: 18.9 µg/mL
IC50 [13]: > 50 µg/mL
IC80 [13]: > 50 µg/mL
IC50 [14]: > 50 µg/mL
IC80 [14]: > 50 µg/mL
IC50 [15]: 15.4 µg/mL
IC80 [15]: > 50 µg/mL
IC50 [16]: 0.002 µg/mL
IC80 [16]: 0.008 µg/mL
IC50 [17]: 0.716 µg/mL
IC80 [17]: 5.25 µg/mL
IC50 [18]: > 50 µg/mL
IC80 [18]: > 50 µg/mL
IC50 [19]: 0.137 µg/mL
IC80 [19]: 0.727 µg/mL
IC80 [20]: 0.036 µg/mL
IC50 [21]: 0.028 µg/mL
IC80 [21]: 0.082 µg/mL
IC50 [22]: 1.63 µg/mL
IC80 [22]: > 50 µg/mL
IC50 [23]: 0.024 µg/mL
IC80 [23]: 0.073 µg/mL
IC50 [24]: 44.2 µg/mL
IC80 [24]: > 50 µg/mL
IC50 [25]: 0.007 µg/mL
IC80 [25]: 0.023 µg/mL
IC50 [26]: < 0.001 µg/mL
IC80 [26]: 0.002 µg/mL
IC50 [27]: < 0.001 µg/mL
IC80 [27]: 0.005 µg/mL
IC50 [28]: > 50 µg/mL
IC80 [28]: > 50 µg/mL
IC80 [29]: 0.035 µg/mL
IC50 [30]: 0.648 µg/mL
IC80 [30]: 3.96 µg/mL
IC50 [31]: 0.025 µg/mL
IC80 [31]: 0.111 µg/mL
IC50 [32]: 0.007 µg/mL
IC80 [32]: 0.024 µg/mL
IC50 [33]: 0.014 µg/mL
IC80 [33]: 0.08 µg/mL
IC50 [34]: 0.033 µg/mL
IC80 [34]: 0.127 µg/mL
IC50 [35]: 3.69 µg/mL
IC50 [36]: 0.064 µg/mL
IC80 [36]: 0.304 µg/mL
IC50 [37]: 0.098 µg/mL
IC80 [37]: 0.343 µg/mL

PGT128 (antibody)
IC50 [1]: 0.032 µg/mL
IC80 [1]: 0.153 µg/mL
IC50 [2]: > 50 µg/mL
IC80 [2]: > 50 µg/mL
IC50 [3]: 0.026 µg/mL
IC80 [3]: 0.072 µg/mL
IC50, titer in TZM.bl cells [4]: > 50 µg/mL
IC80, titer in TZM.bl cells [4]: > 50 µg/mL
IC50 [5]: > 50 µg/mL
IC80 [5]: > 50 µg/mL
IC50 [6]: 0.017 µg/mL
IC80 [6]: 0.046 µg/mL
IC50 [7]: 0.005 µg/mL
IC80 [7]: 0.014 µg/mL
IC50, titer in TZM.bl cells [8]: 3.2 µg/mL
IC80, titer in TZM.bl cells [8]: > 50 µg/mL
IC50, titer in TZM.bl cells [9]: < 0.001 µg/mL
IC80, titer in TZM.bl cells [9]: 0.005 µg/mL
IC50, titer in TZM.bl cells [10]: 0.007 µg/mL
IC80, titer in TZM.bl cells [10]: 0.02 µg/mL
IC50, titer in TZM.bl cells [11]: > 50 µg/mL
IC80, titer in TZM.bl cells [11]: > 50 µg/mL
IC50 [12]: > 50 µg/mL
IC80 [12]: > 50 µg/mL
IC50 [13]: > 50 µg/mL
IC80 [13]: > 50 µg/mL
IC50 [14]: 14.2 µg/mL
IC80 [14]: > 50 µg/mL
IC50 [15]: > 50 µg/mL
IC80 [15]: > 50 µg/mL
IC50 [16]: 0.004 µg/mL
IC80 [16]: 0.016 µg/mL
IC50 [17]: > 50 µg/mL
IC80 [17]: > 50 µg/mL
IC50, titer in TZM.bl cells [18]: 0.031 µg/mL
IC80, titer in TZM.bl cells [18]: 0.089 µg/mL
IC50, titer in TZM.bl cells [19]: > 50 µg/mL
IC80, titer in TZM.bl cells [19]: > 50 µg/mL
IC50 [20]: 0.013 µg/mL
IC80 [20]: 0.038 µg/mL
IC50 [21]: 0.021 µg/mL
IC80 [21]: 0.081 µg/mL
IC50 [22]: > 50 µg/mL
IC80 [22]: > 50 µg/mL
IC50 [23]: 0.008 µg/mL
IC80 [23]: 0.018 µg/mL
IC50 [24]: > 50 µg/mL
IC80 [24]: > 50 µg/mL
IC50 [25]: 0.514 µg/mL
IC80 [25]: > 50 µg/mL
IC50 [26]: 0.001 µg/mL
IC80 [26]: 0.004 µg/mL
IC50 [27]: < 0.001 µg/mL
IC80 [27]: 0.007 µg/mL
IC50 [28]: > 50 µg/mL
IC80 [28]: > 50 µg/mL
IC50 [29]: 0.026 µg/mL
IC80 [29]: 0.109 µg/mL
IC50 [30]: 0.342 µg/mL
IC80 [30]: 3.3 µg/mL
IC50, titer in TZM.bl cells [31]: 0.03 µg/mL
IC80, titer in TZM.bl cells [31]: 0.137 µg/mL
IC50 [32]: 0.01 µg/mL
IC80 [32]: 0.049 µg/mL
IC50, titer in TZM.bl cells [33]: > 50 µg/mL
IC80, titer in TZM.bl cells [33]: > 50 µg/mL
IC50 [34]: 0.019 µg/mL
IC80 [34]: 0.055 µg/mL
IC50 [35]: > 50 µg/mL
IC80 [35]: > 50 µg/mL
IC50 [36]: 0.035 µg/mL
IC80 [36]: 0.312 µg/mL
IC50 [37]: 0.011 µg/mL
IC80 [37]: 0.028 µg/mL
